# Test results from patent US20100105141.
# Assays:
# Experiment in all cases: SPR
# [1] = biological target: wt TetR(B) (Tn10, Gly inserted after Met1) (Escherichia coli) (UniProt P04483); settings: ka 3.3e5 M-1 s-1, kd 3.0e-3 s-1; operator sequence used on chip not stated
# [2] = biological target: L7-1G06-B2 L55M,H64A,F67Y,F86M,H100C,R104G,P105F,K108Q,L113A,Q116S,L117M,L134M,S135Q,H139I,F140Y,E147L,H151L,L170V,I174L,F177K (synthetic) (UniProt P04483); settings: ka 4.6e4 M-1 s-1, kd 1.9e-2 s-1
# [3] = tested on: L7-1C03-A5 (EsR1) L55M,H64A,F67V,S85I,F86M,H100C,R104G,P105F,K108Q,L113A,Q116S,N129H,L134M,S135Q,V137A,H139I,E147L,H151L,L170V,I174L,F177N (synthetic); settings: ka 4.7e4 M-1 s-1, kd 7.8e-3 s-1
# [4] = biological target: L7-1F08-A11 (L7-A11, EsR2) L55M,H64A,F67Y,F86M,H100C,R104G,P105F,K108Q,L113A,Q116S,L134M,S135Q,H139I,F140Y,E147L,H151L,L170V,I174L,F177K (synthetic) (UniProt P04483); settings: ka 7.1e4 M-1 s-1, kd 1.7e-2 s-1
# [5] = tested on: L7-3E03-D1 (EsR4) L55M,H64A,F67Y,F86M,H100C,R104G,P105F,K108Q,L113A,Q116S,N129H,L131M,L134M,S135Q,V137A,H139I,F140Y,E147L,H151L,L170V,I174L,F177K (synthetic); settings: ka 5.5e4 M-1 s-1, kd 1.1e-2 s-1
substance,measurement,setting,value
tet operator (Biacore),Kd,[1],0.009 µM
same,Kd,[2],0.43 µM
same,Kd,[3],0.15 µM
same,Kd,[4],0.25 µM
same,Kd,[5],0.2 µM
